# Source: paper PMC2423479
# Molecular target: Pgc ORF1, (His)6-tagged, 71-residue oligopeptide encoded by Drosophila polar granule component (pgc) ORF1 (Drosophila melanogaster)
# Assay: SEC; refolded (His)6-tagged Pgc ORF1 on a size-exclusion column; two species migrating at 18 kDa and 36 kDa; dimer to monomers; column and buffer not stated
substance,measurement,value
"Pgc ORF1, (His)6-tagged, 71-residue oligopeptide encoded by Drosophila polar granule component (pgc) ORF1 (natural protein)",stoichiometry N,2
